The term Kd denotes a measure of binding affinity in units of concentration. As usually defined, the koff is a measure of how fast the partners let go of each other. For orientation: kon means the second-order rate constant of association.

The source of these data is article PMC9027083 (International Journal of Molecular Sciences, 2022).

The target of test [1] is T1, recombinant MBP-EDIII of DENV1 (Dengue virus 1, strain Guiana/FGA89/1989, strain).
T1 construct: also called DENV1 EDIII; envelope protein domain III of DENV1; not shown: MBP, N-terminal, kept
The test is described as follows: SPR. The following applies: both partners purified.

Test [2] has as its target T2, recombinant MBP-EDIII of DENV3 (Dengue virus 3, strain …, UniProt P27915, strain).
T2 construct: also called DENV3 EDIII; envelope protein domain III of DENV3; not shown: MBP, N-terminal, kept
Description: SPR. To be noted: both partners purified.

B1: 1A1D-2 Fab WT (Fab, V domains shown)
VH: EVQLQQSGAELVKPGASVKLSCTASGFNIKDTYMHWVKQRPEQGLEWIGRIDPANGYSKYDPKFQGKATITADTSSNAAYLQLSSLTSEDTAVYFCARDYEGFAYWGQGTLVTVSS
VL: DIVLTQSPASLAVSLGQRATISCRASESVVRYGNSFMHWYQQKPGQPPKLLIYRASSLESGIPTRFSGSGSRTDFTLTINPVEADDVATYYCQQTNVDPWAFGGGTKLEIK
notes: also called 1A1D-2 WT
B1: in test [1], the dissociation constant Kd came out at 216 nM, the koff was 0.00755 s⁻¹ and the kon amounted to 34900 M⁻¹ s⁻¹. Further, in test [2], the Kd amounted to 91 nM, the koff was found to be 0.00792 s⁻¹ and the kon came to 87000 M⁻¹ s⁻¹.

B2: 1A1D-2 Fab A54E-Y105R double mutant (Fab, V domains shown)
VH: EVQLQQSGAELVKPGASVKLSCTASGFNIKDTYMHWVKQRPEQGLEWIGRIDPENGYSKYDPKFQGKATITADTSSNAAYLQLSSLTSEDTAVYFCARDYEGFARWGQGTLVTVSS
VL: DIVLTQSPASLAVSLGQRATISCRASESVVRYGNSFMHWYQQKPGQPPKLLIYRASSLESGIPTRFSGSGSRTDFTLTINPVEADDVATYYCQQTNVDPWAFGGGTKLEIK
With B2, in test [1], the equilibrium dissociation constant (Kd) is 27.4 nM, the koff came out at 0.0012 s⁻¹ and the on-rate constant (kon) is 43900 M⁻¹ s⁻¹. Also, in test [2], the Kd was 7.11 nM, the koff was 0.00158 s⁻¹ and the kon was determined as 222000 M⁻¹ s⁻¹.

B3: 1A1D-2 Fab Y105R.H (Fab, V domains shown)
VH: EVQLQQSGAELVKPGASVKLSCTASGFNIKDTYMHWVKQRPEQGLEWIGRIDPANGYSKYDPKFQGKATITADTSSNAAYLQLSSLTSEDTAVYFCARDYEGFARWGQGTLVTVSS
VL: DIVLTQSPASLAVSLGQRATISCRASESVVRYGNSFMHWYQQKPGQPPKLLIYRASSLESGIPTRFSGSGSRTDFTLTINPVEADDVATYYCQQTNVDPWAFGGGTKLEIK
On to B3, for which, in test [1], the Kd turned out to be 42.6 nM, the koff was found to be 0.00185 s⁻¹ and the kon was 43500 M⁻¹ s⁻¹. Besides, in test [2], the Kd was 49.2 nM, the koff was 0.00419 s⁻¹ and the kon stood at 85200 M⁻¹ s⁻¹.

B4: 1A1D-2 Fab A54E.H (Fab, V domains shown)
VH: EVQLQQSGAELVKPGASVKLSCTASGFNIKDTYMHWVKQRPEQGLEWIGRIDPENGYSKYDPKFQGKATITADTSSNAAYLQLSSLTSEDTAVYFCARDYEGFAYWGQGTLVTVSS
VL: DIVLTQSPASLAVSLGQRATISCRASESVVRYGNSFMHWYQQKPGQPPKLLIYRASSLESGIPTRFSGSGSRTDFTLTINPVEADDVATYYCQQTNVDPWAFGGGTKLEIK
With B4, in test [1], the Kd worked out at 140 nM, the koff is 0.00617 s⁻¹ and the kon stood at 44300 M⁻¹ s⁻¹. In addition, in test [2], the Kd amounted to 10.3 nM, the koff was found to be 0.00364 s⁻¹ and the kon worked out at 354000 M⁻¹ s⁻¹.
